Laboratory results reported in paper doi:10.1101/2025.08.07.669152 (bioRxiv, 2025).

B1: Nb 2-38 (VHH)
VHH: QVQLVESGGGLVQAGGSLRLSCAAAARFSTSAMGWFRQAPGKEREFVAAISWSNTNTHYADTVKGRFTISADTAKETVDLQMNSLKPEDTAVYYCVQGGWGIRQPIIVDYWGKGTQVTVSS
B2: Nb 2-45 (VHH)
VHH: QVQLVESGGGLVQAGGSLRLSCTASGYDFSILAIAWYRQAPGKERELVAAISRVGSTDYADSVKGRFTISRDNTKNTVSLQMDSLKPEDTAVYYCNAGIPMTTVLSGLGFWGQGTQVTVSS
B3: Nb 2-31 (VHH)
VHH: QVQLVESGGGLVQAGESLRLSCAASKPTFRNFAAGWFRQTPGKDREFVAVIEYDGDSAYYADSVKGRFTISRDNAKNTVYLQMNRLKPGDTAVYICAIGGNHYDPSKYYTADEYDYWGQGTQVTVSS
B4: Nb 1-22 (VHH)
VHH: HVQLVESGGGLVQPGGSLRLSCAASGRSFNSYLMGWFRQAPGKEREFVAWISGSPHDIIRYRDSVKDRFTISRDNAKNTVYLQMNSLKPVDTAVYYCAVGSLRVGSFSPDYWGQGTQVTVSS

Molecular target: WT RBD of SARS-CoV-2 (S protein residues 319–539) (SARS-CoV-2, wild type (GenBank …, UniProt P0DTC2))
Experiment: ELISA

| Binder | binding result |
| --- | --- |
| B1 | binds |
| B2 | binds |
| B3 | binds |
| B4 | binds |
